The record followed here is patent publication US7524668B1, “Crystal of human beta secretase having monoclinic space group symmetry C2 and methods for crystallization thereof” (Elan Pharmaceuticals, Inc., priority 2001, dated 2009).

The series has as its target T1, beta secretase (Homo sapiens, UniProt P56817).
T1 construct: a homogeneous preparation of beta secretase with V^40 as an N-terminus could be made; made in house; host or cells: CHO-K1 cells; secreted, purified, then cleaved in vitro with HIV-1 protease
Nature of the series: beta secretase activity assay by HPLC analysis of the products. It is filed as biochemical. Particulars: CHO cell derived human beta secretase cleaved at F39-V40 by HIV-1 protease, compared with unprocessed/non-treated enzyme. As for the experimental part: Cleavage of Beta Secretase by HIV Protease. It was reasoned that a homogeneous preparation of beta secretase with V^40 as an N-terminus could be made if conditions could be found to bring the cleavage to completion. The optimal conditions for cleavage were determined by examining the N-terminal sequence of beta secretase after incubation with HIV-1 protease in various conditions. These included a pH range of 4-7, urea concentrations of 0.5-3.0 M, and time increments of 15 minutes, up to 2 hours incubation at 37° C. […] The processed enzyme was separated from the other components of the reaction mixture by using an affinity column based on the synthetic peptide shown in FIG. 2 and dialysis.
Purified HIV-1 protease treated (and non-treated) beta secretase were assayed for activity by HPLC analysis of the products.

B1: HIV-1 protease treated beta secretase: CHO cell expressed recombinant human beta secretase proteolytically cleaved with HIV protease at the F39-V40 bond (SEQ ID NO:5) (protein)
chain: VEMVDNLRGKSGQGYYVEMTVGSPPQTLNILVDTGSSNFAVGAAPHPFLHRYYQRQLSSTYRDLRKGVYVPYTQGKWEGELGTDLVSIPHGPNVTVRANIAAITESDKFFINGSNWEGILGLAYAEIARPDDSLEPFFDSLVKQTHVPNLFSLQLCGAGFPLNQSEVLASVGGSMIIGGIDHSLYTGSLWYTPIRREWYYEVIIVRVEINGQDLKMDCKEYNYDKSIVDSGTTNLRLPKKVFEAAVKSIKAASSTEKFPDGFWLGEQLVCWQAGTTPWNIFPVISLYLMGEVTNQSFRITILPQQYLRPVEDVATSQDDCYKFAISQSSTGTVMGAVIMEGFYVVFDRARKRIGFAVSACHVHDEFRTAAVEGPFVTLDMEDCGYNIPQTDESHHHHHH
Take B1: the “more enzymatic activity than non-treated beta secretase” value is 10-20%.
